Source: patent publication US20070207967A1, “Peptide Inhibitors of Matrix Metalloproteinase Activity” (CTT CANCER TARGETING TECHNOLOGIES OY, priority 2004, published 2007)

T1: MMP-9 C domain (Homo sapiens, UniProt P14780)
T1 construct: MMP-9 (Asp^494-Asp^688) were expressed as described (16); made in house; host or cells: E. coli (β5 fragment)
T1 sequence (P14780 513-707 limits assumed): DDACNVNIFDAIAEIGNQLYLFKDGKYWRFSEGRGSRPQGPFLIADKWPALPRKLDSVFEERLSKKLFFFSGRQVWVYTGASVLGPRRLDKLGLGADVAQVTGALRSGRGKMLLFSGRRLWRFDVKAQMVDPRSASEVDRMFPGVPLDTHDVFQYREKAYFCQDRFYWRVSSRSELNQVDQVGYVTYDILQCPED


Key:
HT1080 cells = assay: HT1080 cell adhesion to vitronectin or fibronectin; assay type: cell-based, human; conditions: proteins 40 μg/ml, CRV peptide 200 μM
Description: (§1) Cell adhesion. HT1080 cells were allowed to adhere on vitronectin or fibronectin (2 μg/ml) in the presence or absence of peptides (200 μM), proteins (40 μg/ml) or a monoclonal anti-αvβ5 integrin antibody P1F6 (Chemicon) or a control antibody (25 μg/ml). The adhesion was quantified as described (14). Adhesion of THP-1 cells to immobilized KIM127 or control monoclonal antibodies (2 μg/ml) was done in the presence or absence of soluble proteins (50 μg/ml) or antibodies (25 μg/ml).

[1] = system: β5 integrin-transfected CS-1 melanoma cells; assay: 125I-C domain binding to cells; assay type: cell-based, hamster; conditions: for Competition of 125I-labelled MMP-9 C domain binding to β5 integrin-transfected CS-1 cells: unlabelled proteins 50 μg/ml, peptides 50 μM
Description: ^125I-C domain binding to cells. The MMP-9 C domain was labelled with ^125I to a specific activity 0.06 μCi/pmol. The labelled domain retained 40% of the CRV peptide-binding activity as shown by the phage-binding assay. […] After a preincubation of 1.5×10^6 cells in a 200 μl volume on ice for 30 min with the competitors, ^125I-labelled C domain (1×10^6 cpm) was added and incubated for three hours on ice. The cells were transferred to tubes containing 200 μl of dibutyl phthalate/cyclohexane mixture (23:2 vol/vol), centrifuged 7500×g for 10 minutes and snap-frozen (24). The bottom of the tube containing the cells were cut and analyzed with a gamma-counter.

THP-1 cells [2] = assay: THP-1 cell binding to antibody R3F9C; assay type: cell-based, human; conditions: not shown
Description: as §1

THP-1 cells [3] = assay: THP-1 cell binding to immobilized KIM127 antibody; assay type: cell-based, human
Description: as §1

HT1080 fibrosarcoma = assay: HT1080 invasion through matrigel; assay type: cell-based, human; conditions: 50 μg/ml
Description: Cell migration and invasion. The cell migration assay was conducted using transwell migration chambers (8 μm pore size, Costar) in 10% serum-containing medium (2,14). Briefly, the membranes were coated on both sides with 40 μg/ml GST or with the β2 integrin ligand peptide […]-GST fusion (GST-LLG-C4) and blocked with complete medium. THP-1 cells (50 000/100 μl) were preincubated with the peptides for 1 h in serum-containing medium. The cells were allowed to migrate for 16 h and were then stained with crystal violet and counted (14). The HT1080 (20 000 cells/I100 μl) invasion assay was performed as the THP-1 migration, except that matrigel coated transwells (BD Biosciences) were used.

[4] = system: MMP-9 CBD, vitronectin, β5 I-EGF2+3, C domain of MMP-2; assay: β5 I-EGF2+3 binding assay, other immobilized proteins
Description: (§2) B5 I-EGF2+3 binding assay. MMP-9 C domain, MMP-2 C domain, CBD, β5 I-EGF2+3 or vitronectin (2 μg/ml) were immobilized in microtiter wells. Biotinylated β5 I-EGF2+3 fragment (2.5 μg/ml) was added to the wells which were preincubated with the competitors for 30 min in 1% BSA-PBST and then incubated further for one hour. Bound biotinylated protein was detected with streptavidin-peroxidase.

MMP-9 C domain = molecular target: T1, MMP-9 C domain; assay: β5 I-EGF2+3 binding assay, MMP-9 C domain
Description: as §2

Molecule	Inhibition of HT1080 cell adhesion to vitronectin or fibronectin (HT1080 cells)	Competition of 125I-labelled MMP-9 C domain binding to β5 integrin-transfected CS-1 cells [1]	Inhibition of HT1080 invasion through matrigel by integrin and MMP domains (HT1080 fibrosarcoma)	also measured
MMP-9 C domain: recombinant C-terminal hemopexin-like domain of MMP-9 (Asp494-Asp688) (protein) DDACNVNIFDAIAEIGNQLYLFKDGKYWRFSEGRGSRPQGPFLIADKWPALPRKLDSVFEERLSKKLFFFSGRQVWVYTGASVLGPRRLDKLGLGADVAQVTGALRSGRGKMLLFSGRRLWRFDVKAQMVDPRSASEVDRMFPGVPLDTHDVFQYREKAYFCQDRFYWRVSSRSELNQVDQVGYVTYDILQCPED	Neither	competed	inhibited HT1080 invasion with a similar potency	Binding of 125Iodine-labelled MMP-9 C domain to β5 integrin-transfected CS-1 cells ([1]; not to the untransfected cells): specific binding; Effect on THP-1 binding to R3F9C (THP-1 cells [2]): no effect; Inhibition of THP-1 cell binding to KIM127 (THP-1 cells [3]; 50 μg/ml): 40%
pro-MMP-9-ΔHC: pro-MMP-9 lacking the hinge region and the C domain (protein) APRQRQSTLVLFPGDLRTNLTDRQLAEEYLYRYGYTRVAEMRGESKSLGPALLLLQKQLSLPETGELDSATLKAMRTPRCGVPDLGRFQTFEGDLKWHHHNITYWIQNYSEDLPRAVIDDAFARAFALWSAVTPLTFTRVYSRDADIVIQFGVAEHGDGYPFDGKDGLLAHAFPPGPGIQGDAHFDDDELWSLGKGVVVPTRFGNADGAACHFPFIFEGRSYSACTTDGRSDGLPWCSTTANYDTDDRFGFCPSERLYTQDGNADGKPCQFPFIFQGQSYSACTTDGRSDGYRWCATTANYDRDKLFGFCPTRADSTVMGGNSAGELCVFPFTFLGKEYSTCTSEGRGDGRLWCATTSNFDSDKKWGFCPDQGYSLFLVAAHEFGHALGLDHSSVPEALMYPMYRFTEGPPLHKDDVNGIRHLYG	Neither	–	–	–
CBD: recombinant collagen binding domain of MMP-9 (Gly204-Gly373) (protein) GNADGAACHFPFIFEGRSYSACTTDGRSDGLPWCSTTANYDTDDRFGFCPSERLYTQDGNADGKPCQFPFIFQGQSYSACTTDGRSDGYRWCATTANYDRDKLFGFCPTRADSTVMGGNSAGELCVFPFTFLGKEYSTCTSEGRGDGRLWCATTSNFDSDKKWGFCPDQG	–	–	–	Effect on THP-1 cell binding to immobilized KIM127 (THP-1 cells [3]; proteins 50 μg/ml, antibodies 25 μg/ml): did not
MMP-2 C domain: recombinant C-terminal domain of MMP-2 (Glu438-Cys631) (protein) EICKQDIVFDGIAQIRGEIFFFKDRFIWRTVTPRDKPMGPLLVATFWPELPEKIDAVYEAPQEEKAVFFAGNEYWIYSASTLERGYPKPLTSLGLPPDVQRVDAAFNWSKNKKTYIFAGDKFWRYNEVKKKMDPGFPKLIADAWNAIPDNLDAVVDLQGGGHSYFFKGAYYLKLENQSLKSVKFGSIKSDWLGC	–	No competition	inhibited HT1080 invasion with a similar potency	–
β5 I-EGF2+3: integrin β5 I-EGF2+3 fragment (Glu476-Asn563) with N-terminal His6-tag (protein, left off: small tags and cut ends, integrin β5 I-EGF2+3 fragment (Glu476-Asn563) with N-terminal His6-tag) ECQDGENQSVYQNLCREAEGKPLCSGRGDCSCNQCSCFESEFGKIYGPFCECDNFSCARNKGVLCSGHGECHCGECKCHAGYIGDNCN	–	competed	inhibited HT1080 invasion with a similar potency	Binding of β5 I-EGF2+3 to MMP-9 CBD, vitronectin, itself or the C domain of MMP-2 [4]: did not bind; Competition of biotinylated β5 I-EGF2+3 binding to the MMP-9 C domain (MMP-9 C domain): inhibited; Binding of biotinylated β5 I-EGF2+3 to the MMP-9 C domain (MMP-9 C domain; 2.5 μg/ml): specifically bound
